Measured values: paper PMC10440987, “SLG2 specifically regulates grain width through WOX11 ‐mediated cell expansion control in rice”

Experiments:
[1] = target: T1, WOX11-MBP (Oryza sativa (rice; cultivar of the …, UniProt Q0D3I7 1-262); assay: EMSA; LightShift Chemiluminescent EMSA Kit (Thermo 20148), manufacturer's instructions; buffer, salt, pH and temperature not stated; conditions: protein: recombinant; tags: MBP; label: 5' biotin; blunt
T1 sequence: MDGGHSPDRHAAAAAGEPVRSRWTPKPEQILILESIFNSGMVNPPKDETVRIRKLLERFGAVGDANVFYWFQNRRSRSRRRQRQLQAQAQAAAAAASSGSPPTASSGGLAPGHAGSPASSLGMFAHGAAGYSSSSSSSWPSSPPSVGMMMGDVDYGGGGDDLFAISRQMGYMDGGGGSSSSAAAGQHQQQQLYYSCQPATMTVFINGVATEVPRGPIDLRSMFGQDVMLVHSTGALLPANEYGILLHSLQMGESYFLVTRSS

[2] = target: T1, WOX11-MBP; assay: competition EMSA; unlabelled competitor against biotin hot probe N1; LightShift Chemiluminescent EMSA Kit (Thermo 20148), manufacturer's instructions; buffer, salt, pH and temperature not stated; conditions: protein: recombinant; tags: MBP; blunt

B1: pOsEXPB7 hot probe (dsDNA)
DNA 1: AGGGATCGATCGAAATTAATGGCGGGCAGGAGCAGGA
DNA 2: TCCTGCTCCTGCCCGCCATTAATTTCGATCGATCCCT
- binding result [1]: binds

B2: pOsEXPB7 cold probe (dsDNA)
DNA 1: AGGGATCGATCGAAATTAATGGCGGGCAGGAGCAGGA
DNA 2: TCCTGCTCCTGCCCGCCATTAATTTCGATCGATCCCT
- binding result [2]: binds

B3: pOsEXPB7 mutant probe (dsDNA)
DNA 1: AGGGATCGATCGAAATCCATGGCGGGCAGGAGCAGGA
DNA 2: TCCTGCTCCTGCCCGCCATGGATTTCGATCGATCCCT
- binding result [1]: no binding
